Target: the two scFvs (17-21-A01-sc01 and 17-21-A01-sc03)
Assay: competition ELISA: IC50 of TNFβ relative to IC50 of TNFα on coated scFv

B1: recombinant human TNFβ (Peprotech, Cat. No. 300-01B) (ligand, UniProt P01374 35-205, looked up)
chain: LPGVGLTPSAAQTARQHPKMHLAHSTLKPAAHLIGDPSKQNSLLWRANTDRAFLQDGFSLSNNSLLVPTSGIYFVYSQVVFSGKAYSPKATSSPLYLAHEVQLFSSQYPFHVPLLSSQKMVYPGLQEPWLHSMYHGAAFQLTQGDQLSTHTDGIPHLVLSPSTVFFGAFAL
For B1, which selectivity for binding to TNFα over TNFβ is on record?
Its selectivity for binding to TNFα over TNFβ is over 20000 fold.
